Patent US20030003547

Molecular target: T1, RecA (UniProt P0A7G6)
T1 sequence: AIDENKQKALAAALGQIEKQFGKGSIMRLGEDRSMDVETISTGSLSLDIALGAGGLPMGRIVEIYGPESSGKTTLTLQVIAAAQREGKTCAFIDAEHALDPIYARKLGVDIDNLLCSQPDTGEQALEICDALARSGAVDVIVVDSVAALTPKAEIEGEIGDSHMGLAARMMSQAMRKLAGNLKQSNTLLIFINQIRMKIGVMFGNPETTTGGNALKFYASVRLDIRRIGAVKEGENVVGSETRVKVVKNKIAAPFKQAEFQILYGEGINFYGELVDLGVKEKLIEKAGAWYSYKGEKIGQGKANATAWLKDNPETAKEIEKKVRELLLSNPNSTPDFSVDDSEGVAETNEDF
Assay: EMSA
Conditions: 5'-acridine; C5-propynyl-dU, 5-methyl-dC, 7-deaza-dG in TFO; triethyleneglycol spacer between TFO and adapter; with Y0Gorec plasmid, 15 uM RecA, ATPgammaS, ADP, 12.5 mM MgCl2; 22% without RecA; 100% of complex associated with plasmid in RecA reaction

## NNNNNTNTNNNGNGGNGCGCGTGGCCAGC [TFO1-S + R (GOREC with homologous 40-nt R)]
  activity (% joint molecules in 5 min): 80
